Source: the Human Domainome abundance scans (Beltran et al. 2025)

B1: POU domain, class 2, transcription factor 1, residues 285 to 354; numbered along this chain, P14859 (parent)
chain: LEELEQFAKTFKQRRIKLGFTQGDVGLAMGKLYGNDFSQTTISRFEALNLSFKNMCKLKPLLEKWLNDAE

Variants of: B1
Experiment: abundance fitness (aPCA) (normalised: wild type 0, dead -1); higher = more abundant; growth selection in yeast, the domain comes from the species named
Details: Homo sapiens

Abundance fitness: each site, then its substitutions
T40: Q 0.016; I -0.142; W -0.054; G -0.028; N 0.004; Y 0.077; H -0.035; C 0.019; E -0.354; L -0.001; R 0.014; K -0.071; F 0.067; M -0.059; S -0.007; D -0.15; P -0.032
E46: V -0.852; H -0.856; W -0.698; G -0.929; I -0.84; N -0.783; C -0.801; Y -1.02; T -0.934; K -0.658; D -0.754; L -1.01; F -1; Q -0.851
N49: R -0.079; G -0.002; S -0.004; K -0.045; D 0.033; E 0.043; H -0.063; F -0.279; P -0.65; C -0.086; L -0.029; I 0.025; Q 0.007
F45: Q -1.02; L -0.115; C -0.451; I -0.382; N -1.04; H -0.952; R -1.01; V -0.429; W -0.247; K -0.97; T -0.847; P -1.04; E -1.01; S -0.864; A -0.62; M -0.137; Y -0.133
G30: L -0.015; H -0.068; K -0.034; C 0; I 0.012; S -0.019; T -0.028; P -0.209; Y 0.002; N -0.113; F 0.014; W 0.006; M -0.024; Q 0.102; D -0.087; R 0.01; A 0.014; E -0.025
A47: H -0.107; N 0.033; S -0.048; E 0.055; D 0.092; R -0.044; Q 0.017; G 0.001; K -0.015; P -0.964; L 0.054
S43: G -0.156; F -0.088; H -0.077; I -0.064; A 0.035; W -0.086; D -0.161; P -0.03; C -0.033; Y -0.053; K 0.121; M -0.013; E -0.013; R 0.018; T -0.007; L -0.067; Q 0.029; N 0.005
Q39: G 0.005; F -0.14; V -0.033; L -0.026; C -0.037; R 0.005; N -0.055; I -0.057; A 0.015; P -0.011; S 0.015; T 0.008; D 0.008; W -0.005; K 0.014; E 0.013; H 0.028; M -0.056
L48: W -0.142; R 0.004; K 0.084; F -0.054; P -0.336; V -0.085; Y -0.053; T -0.004; Q 0.006; M -0.007; C 0.001; A -0.054; S -0.005; N -0.03; I 0.014
Y33: T -0.061; N -0.075; A -0.045; P -0.104; S -0.039; Q -0.067; M -0.11; G -0.097; E -0.047; V -0.151; K -0.053; L -0.008; I -0.019; W -0.122; F -0.031; R -0.103; D -0.125; H 0.031; C -0.04
L32: R -0.031; E -0.005; S -0.154; K 0.031; D -0.078; T 0.005; N -0.054; A -0.006; G -0.107; Q -0.012; H -0.004; V -0.226; F -0.193
K31: V -0.126; R 0.018; F -0.126; Y -0.069; Q -0.034; D -0.029; S -0.068; W -0.323; G -0.066; M -0.256; E 0.058; I -0.495; P -0.115; C -0.12; H 0.003; L -0.166; N -0.217; A -0.027
N35: I 0.03; Q 0; Y -0.494; G 0.053; H 0.073; S -0.038; A -0.011; E 0.025; K 0.006; V -0.057; T 0.002; R 0.008; D 0.035; P -0.031; M -0.108
M29: L -0.016; V 0.031; P -0.903; G -0.377; Q -0.497; D -0.727; R -0.998; F -0.148; A -0.145; E -0.808; S -0.49; I -0.006; C -0.092; W -0.625; H -0.689; K -0.748; Y -0.512
S38: F -0.199; G 0.023; D 0.048; Y -0.271; A -0.038; E -0.03; Q -0.03; T 0.012; K -0.011; N -0.032; P -0.041; R -0.061
T41: K 0.022; I -0.067; P -0.209; W -0.088; H -0.052; V -0.029; A -0.02; E -0.163; N -0.029; C -0.08; L -0.023; Q -0.028; R -0.098; S 0.005; D -0.018; M -0.029; F -0.1
F37: M -0.011; Y -0.135; K -0.184; P -0.148; E -0.199; Q -0.214; N -0.337; C 0.028; G -0.211; V 0.038; I -0.011; A -0.081; R -0.355; L -0.003; D 0.006; S -0.119; T -0.059
I42: K -0.789; Q -0.948; G -1.09; W -0.655; D -1.08; N -0.805; L -0.074; P -0.877; H -0.983; C -0.336; R -0.869; A -0.655; Y -0.674; M -0.276; S -0.997
G34: D -0.036; T -0.16; C -0.023; A -0.027; F -0.276; K -0.039; S -0.1; V -0.164; N -0.041; L -0.151; Y -0.165; P 0; H -0.097; W -0.301; R -0.027; E -0.01; I -0.189
D36: N -0.043; E -0.027; A -0.049; F -0.19; Q -0.034; K -0.028; P -0.058; Y -0.037; I -0.006; C -0.036; V -0.029; R -0.047; S -0.05; H -0.077; G -0.092; M -0.121; L 0.014
R44: W -0.253; K -0.048; S 0.015; C -0.053; P -1.02; Y -0.155; Q 0.042; H -0.027; E -0.059; D -0.058; I -0.794; N -0.165; L -0.026; T -0.089; A 0.013; M -0.032
